Measured values reported in patent publication US20230407373A1 (priority 2020, published 2023).

B1: MBNL2 (protein, UniProt Q5VZF2 1-373, looked up)
Muscleblind-like protein 2: MALNVAPVRDTKWLTLEVCRQFQRGTCSRSDEECKFAHPPKSCQVENGRVIACFDSLKGRCSRENCKYLHPPTHLKTQLEINGRNNLIQQKTAAAMLAQQMQFMFPGTPLHPVPTFPVGPAIGTNTAISFAPYLAPVTPGVGLVPTEILPTTPVIVPGSPPVTVPGSTATQKLLRTDKLEVCREFQRGNCARGETDCRFAHPADSTMIDTSDNTVTVCMDYIKGRCMREKCKYFHPPAHLQAKIKAAQHQANQAAVAAQAAAAAATVMAFPPGALHPLPKRQALEKSNGTSAVFNPSVLHYQQALTSAQLQQHAAFIPTGSVLCMTPATSIDNSEIISRNGMECQESALRITKHCYCTYYPVSSSIELPQTAC
B2: SRSF2 (protein, UniProt Q01130 2-221, looked up)
Serine/arginine-rich splicing …: SYGRPPPDVEGMTSLKVDNLTYRTSPDTLRRVFEKYGRVGDVYIPRDRYTKESRGFAFVRFHDKRDAEDAMDAMDGAVLDGRELRVQMARYGRPPDSHHSRRGPPPRRYGGGGYGRRSRSPRRRRRSRSRSRSRSRSRSRSRYSRSKSRSRTRSRSRSTSKSRSARRSKSKSSSVSRSRSRSRSRSRSRSPPPVSKRESKSRSRSKSPPKSPEEEGAVSS
B3: PA2G4 (protein, UniProt Q9UQ80 2-394, looked up)
Proliferation-associated …: SGEDEQQEQTIAEDLVVTKYKMGGDIANRVLRSLVEASSSGVSVLSLCEKGDAMIMEETGKIFKKEKEMKKGIAFPTSISVNNCVCHFSPLKSDQDYILKEGDLVKIDLGVHVDGFIANVAHTFVVDVAQGTQVTGRKADVIKAAHLCAEAALRLVKPGNQNTQVTEAWNKVAHSFNCTPIEGMLSHQLKQHVIDGEKTIIQNPTDQQKKDHEKAEFEVHEVYAVDVLVSSGEGKAKDAGQRTTIYKRDPSKQYGLKMKTSRAFFSEVERRFDAMPFTLRAFEDEKKARMGVVECAKHELLQPFNVLYEKEGEFVAQFKFTVLLMPNGPMRITSGPFEPDLYKSEMEVQDAELKALLQSSASRKTQKKKKKKASKTAENATSGETLEENEAGD
B4: DDX3Y (protein, UniProt O15523 2-660, looked up)
ATP-dependent RNA helicase …: SHVVVKNDPELDQQLANLDLNSEKQSGGASTASKGRYIPPHLRNREASKGFHDKDSSGWSCSKDKDAYSSFGSRDSRGKPGYFSERGSGSRGRFDDRGRSDYDGIGNRERPGFGRFERSGHSRWCDKSVEDDWSKPLPPSERLEQELFSGGNTGINFEKYDDIPVEATGSNCPPHIENFSDIDMGEIIMGNIELTRYTRPTPVQKHAIPIIKGKRDLMACAQTGSGKTAAFLLPILSQIYTDGPGEALKAVKENGRYGRRKQYPISLVLAPTRELAVQIYEEARKFSYRSRVRPCVVYGGADIGQQIRDLERGCHLLVATPGRLVDMMERGKIGLDFCKYLVLDEADRMLDMGFEPQIRRIVEQDTMPPKGVRHTMMFSATFPKEIQMLARDFLDEYIFLAVGRVGSTSENITQKVVWVEDLDKRSFLLDILGATGSDSLTLVFVETKKGADSLEDFLYHEGYACTSIHGDRSQRDREEALHQFRSGKSPILVATAVAARGLDISNVRHVINFDLPSDIEEYVHRIGRTGRVGNLGLATSFFNEKNMNITKDLLDLLVEAKQEVPSWLENMAYEHHYKGGSRGRSKSNRFSGGFGARDYRQSSGSSSSGFGASRGSSSRSGGGGYGNSRGFGGGGYGGFYNSDGYGGNYNSQGVDWWGN

Assays:
SARS-CoV-2 gRNA = assay type: binding; conditions: […]; LC-MS/MS; Probe I sample (first 199 lines of Table 2)
[1] = system: SARS-CoV-2 gRNA and sgRNAs; assay type: binding; conditions: for target (unweighted spectral count in RNP capture): Probe II capture, LC-MS/MS LFQ; for background (unweighted spectral count in control): no-probe control pull-down, used as background for Probe II; for target (unweighted spectral count of the protein in the RNP capture experiment): LC-MS/MS label-free quantification, probe pool not given; for back-ground (unweighted spectral count of the protein in the control experiment): protein background of the control (e.g. no-probe) experiment

Molecule | target (unweighted spectral count of the protein in the RNP capture) (SARS-CoV-2 gRNA) | target (unweighted spectral count in RNP capture) [1] | background (unweighted spectral count in control) [1] | target (unweighted spectral count of the protein in the RNP capture experiment) [1] | back-ground (unweighted spectral count of the protein in the control experiment) [1]
B1 | 7 | 7 | 1 |  | 
B2 | 12 |  |  | 11 | 2
B3 | 7 |  |  | 5 | 1
B4 | 8 | 27 | 1 |  | 
